To fix the notation:
B1: GpH7-A5/GpH7-B3 variant E333_04F/GpL16-k0 (antibody, human IgG1, kappa)
heavy 1: not shown
heavy 2: not shown
light: DIVMTQSPLSLPVTPGEPASISCQASESLVHSNRNTYLHWYLQKPGQSPQLLIYKVSNRFSGVPDRFSGSGSGTDFTLKISRVEAEDVGVYYCSQNTHVPPTFGQGTKVEIERTVAAPSVFIFPPSDEQLKSGTASVVCLLNNFYPREAKVQWKVDNALQSGNSQESVTEQDSKDSTYSLSSTLTLSKADYEKHKVYACEVTHQGLSSPVTKSFNRGEC
notes: heterodimerized; also called He Ab E333_04F
B2: GpH7-A5/GpH7-B3 variant E333_12R/GpL16-k0 (antibody, human IgG1, kappa)
heavy 1: not shown
heavy 2: not shown
light: DIVMTQSPLSLPVTPGEPASISCQASESLVHSNRNTYLHWYLQKPGQSPQLLIYKVSNRFSGVPDRFSGSGSGTDFTLKISRVEAEDVGVYYCSQNTHVPPTFGQGTKVEIERTVAAPSVFIFPPSDEQLKSGTASVVCLLNNFYPREAKVQWKVDNALQSGNSQESVTEQDSKDSTYSLSSTLTLSKADYEKHKVYACEVTHQGLSSPVTKSFNRGEC
notes: heterodimerized; also called He Ab E333_12R
B3: GpH7-A5/GpH7-B3 variant E333_11K/GpL16-k0 (antibody, human IgG1, kappa)
heavy 1: not shown
heavy 2: not shown
light: DIVMTQSPLSLPVTPGEPASISCQASESLVHSNRNTYLHWYLQKPGQSPQLLIYKVSNRFSGVPDRFSGSGSGTDFTLKISRVEAEDVGVYYCSQNTHVPPTFGQGTKVEIERTVAAPSVFIFPPSDEQLKSGTASVVCLLNNFYPREAKVQWKVDNALQSGNSQESVTEQDSKDSTYSLSSTLTLSKADYEKHKVYACEVTHQGLSSPVTKSFNRGEC
notes: heterodimerized; also called He Ab E333_11K
B4: GpH7-A5/GpH7-B3 variant E333_06M/GpL16-k0 (antibody, human IgG1, kappa)
heavy 1: not shown
heavy 2: not shown
light: DIVMTQSPLSLPVTPGEPASISCQASESLVHSNRNTYLHWYLQKPGQSPQLLIYKVSNRFSGVPDRFSGSGSGTDFTLKISRVEAEDVGVYYCSQNTHVPPTFGQGTKVEIERTVAAPSVFIFPPSDEQLKSGTASVVCLLNNFYPREAKVQWKVDNALQSGNSQESVTEQDSKDSTYSLSSTLTLSKADYEKHKVYACEVTHQGLSSPVTKSFNRGEC
notes: heterodimerized; also called He Ab E333_06M
B5: GpH7-A5/GpH7-B3 variant E333_09D/GpL16-k0 (antibody, human IgG1, kappa)
heavy 1: not shown
heavy 2: not shown
light: DIVMTQSPLSLPVTPGEPASISCQASESLVHSNRNTYLHWYLQKPGQSPQLLIYKVSNRFSGVPDRFSGSGSGTDFTLKISRVEAEDVGVYYCSQNTHVPPTFGQGTKVEIERTVAAPSVFIFPPSDEQLKSGTASVVCLLNNFYPREAKVQWKVDNALQSGNSQESVTEQDSKDSTYSLSSTLTLSKADYEKHKVYACEVTHQGLSSPVTKSFNRGEC
notes: heterodimerized; also called He Ab E333_09D
B6: GpH7-A5/GpH7-B3 variant E333_05P/GpL16-k0 (antibody, human IgG1, kappa)
heavy 1: not shown
heavy 2: not shown
light: DIVMTQSPLSLPVTPGEPASISCQASESLVHSNRNTYLHWYLQKPGQSPQLLIYKVSNRFSGVPDRFSGSGSGTDFTLKISRVEAEDVGVYYCSQNTHVPPTFGQGTKVEIERTVAAPSVFIFPPSDEQLKSGTASVVCLLNNFYPREAKVQWKVDNALQSGNSQESVTEQDSKDSTYSLSSTLTLSKADYEKHKVYACEVTHQGLSSPVTKSFNRGEC
notes: heterodimerized; also called He Ab E333_05P
B7: GpH7-A5/GpH7-B3 variant E333_07I/GpL16-k0 (antibody, human IgG1, kappa)
heavy 1: not shown
heavy 2: not shown
light: DIVMTQSPLSLPVTPGEPASISCQASESLVHSNRNTYLHWYLQKPGQSPQLLIYKVSNRFSGVPDRFSGSGSGTDFTLKISRVEAEDVGVYYCSQNTHVPPTFGQGTKVEIERTVAAPSVFIFPPSDEQLKSGTASVVCLLNNFYPREAKVQWKVDNALQSGNSQESVTEQDSKDSTYSLSSTLTLSKADYEKHKVYACEVTHQGLSSPVTKSFNRGEC
notes: heterodimerized; also called He Ab E333_07I
B8: GpH7-A5/GpH7-B3 variant E333_08L/GpL16-k0 (antibody, human IgG1, kappa)
heavy 1: not shown
heavy 2: not shown
light: DIVMTQSPLSLPVTPGEPASISCQASESLVHSNRNTYLHWYLQKPGQSPQLLIYKVSNRFSGVPDRFSGSGSGTDFTLKISRVEAEDVGVYYCSQNTHVPPTFGQGTKVEIERTVAAPSVFIFPPSDEQLKSGTASVVCLLNNFYPREAKVQWKVDNALQSGNSQESVTEQDSKDSTYSLSSTLTLSKADYEKHKVYACEVTHQGLSSPVTKSFNRGEC
notes: heterodimerized; also called He Ab E333_08L

For the test, the target named is T1, FcγRIa (human, UniProt P12314 16-292).
T1 construct: extracellular domain; also called FcgRI; CD64
T1 sequence (P12314 16-292): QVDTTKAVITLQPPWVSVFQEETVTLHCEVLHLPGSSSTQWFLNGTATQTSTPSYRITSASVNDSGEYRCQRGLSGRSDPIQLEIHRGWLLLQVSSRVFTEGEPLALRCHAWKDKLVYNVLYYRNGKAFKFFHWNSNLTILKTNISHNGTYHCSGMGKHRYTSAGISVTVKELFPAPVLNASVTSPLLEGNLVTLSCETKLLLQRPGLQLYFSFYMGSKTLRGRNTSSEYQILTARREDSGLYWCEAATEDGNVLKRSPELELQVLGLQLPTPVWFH
Briefly: SPR; vs GpH7-A5/GpH7-B3/GpL16-k0=100. A general note: In SPR one partner is held on a chip, and binding of the other changes the refractive index at the surface.
Take B1: the He/Con_1a is 102 % of control.
Take B2: the He/Con_1a is 102 % of control.
B3: the He/Con_1a was 102 % of control.
For B4 the value was 102 % of control; for B5, 104 % of control.
The same measure for B6: 102 % of control; for B7: 102 % of control; for B8: 102 % of control.

The values are drawn from patent publication US20180155451A1 (published 2018).
